The supplement of paper PMC9732359
± gives the uncertainty stated by the source.

Assay: protein stability index of a GFP-peptide fusion (yeast GPS) (PSI 1-4); higher = more stable; sorted into four equal gates, so the index is relative within each strain
Procedure, shortened: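 Yeast carrying a pooled library were grown to mid-log phase in leucine-free medium. Each library plasmid expresses Cherry and has a tiled 17-residue yeast protein peptide fused downstream of GFP. Cells were sorted into four equal gates by GFP/Cherry ratio, and plasmids from each gate were PCR-amplified, Illumina-sequenced and assigned to strains by barcode. Summing, across gates, the read frequency times the gate number gave each peptide's protein stability index.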

Q: With RLKGDIFCVGSGQTFAY [PRE2] as the sequence, how does the protein stability index (doa10∆) read?
A: 2.39 ± 0.05

Q: And the protein stability index (pdr5∆)?
A: 1.77 ± 0.041

Q: And the protein stability index (san1∆)?
A: 2.25 ± 0.019

Q: And the protein stability index (ubr1∆)?
A: 1.79 ± 0.044

Q: Which protein stability index (doa10∆) does the source give for TDEHLIFNSGKMIILDK [ISW2] here?
A: 3 ± 0.24

Q: And the protein stability index (pdr5∆)?
A: 2.74 ± 0.074

Q: And the protein stability index (san1∆)?
A: 2.35 ± 0.1

Q: What about the protein stability index (ubr1∆) of the same sequence?
A: 2.59 ± 0.058

Q: Which results are given for DGAYALSASWDKTLRLW [ASC1]?
A: protein stability index (doa10∆): 3.28 ± 0.064; protein stability index (pdr5∆): 3.28 ± 0.057; protein stability index (san1∆): 3.18 ± 0.093; protein stability index (ubr1∆): 3.26 ± 0.036

Q: Which protein stability index (doa10∆) does the source give for QPASYHSVQETNKISPK [SSN2] here?
A: 3.34 ± 0.098

Q: What about the protein stability index (pdr5∆) of the same sequence?
A: 3.1 ± 0.12

Q: What about the protein stability index (san1∆) of the same sequence?
A: 3.08 ± 0.068

Q: And the protein stability index (ubr1∆)?
A: 1.91 ± 0.069

Q: What does the source list for KLDASKKQQAALTNELN [YIL149C/MLP2]?
A: protein stability index (doa10∆): 2.79 ± 0.069; protein stability index (pdr5∆): 2.99 ± 0.075; protein stability index (san1∆): 2.68 ± 0.08; protein stability index (ubr1∆): 2.17 ± 0.062

Q: Which protein stability index (doa10∆) does the source give for FKPSQEPEFHALSQSSL [RRI1] here?
A: 2.61 ± 0.05

Q: And the protein stability index (pdr5∆)?
A: 2.83 ± 0.043

Q: And the protein stability index (san1∆)?
A: 2.8 ± 0.042

Q: What about the protein stability index (ubr1∆) of the same sequence?
A: 2.42 ± 0.04

Q: What does the source list for DKYHEQWIKFLLHTLYL [SSN8]?
A: protein stability index (doa10∆): 2.62 ± 0.1; protein stability index (pdr5∆): 2.2 ± 0.076; protein stability index (san1∆): 1.93 ± 0.13; protein stability index (ubr1∆): 2.43 ± 0.052

Q: For EATLLTNSNNGSSNNNT [SNF5], which protein stability index (doa10∆) is on record?
A: 3 ± 0.087

Q: And the protein stability index (pdr5∆)?
A: 3.32 ± 0.13

Q: And the protein stability index (san1∆)?
A: 3.14 ± 0.1

Q: What about the protein stability index (ubr1∆) of the same sequence?
A: 3.21 ± 0.065

Q: What does the source list for NNIDQSLILKESGSTPI [YAR002W/NUP60]?
A: protein stability index (doa10∆): 1.85 ± 0.085; protein stability index (pdr5∆): 1.78 ± 0.1; protein stability index (ubr1∆): 1.61 ± 0.064

Q: Which results are given for FALPAGSPKSATSKTSE [CDC53]?
A: protein stability index (doa10∆): 2.9 ± 0.17; protein stability index (pdr5∆): 2.92 ± 0.13

Q: With DLLKFENISLAEFILKN [BRR2] as the sequence, how does the protein stability index (doa10∆) read?
A: 2.94 ± 0.082

Q: And the protein stability index (pdr5∆)?
A: 3.3 ± 0.09

Q: And the protein stability index (san1∆)?
A: 2.82 ± 0.062

Q: What about the protein stability index (ubr1∆) of the same sequence?
A: 2.83 ± 0.074

Q: For LATPVQFELLSRRWRQR [BRR2], which protein stability index (doa10∆) is on record?
A: 1.79 ± 0.072

Q: And the protein stability index (pdr5∆)?
A: 1.87 ± 0.054

Q: What about the protein stability index (san1∆) of the same sequence?
A: 1.81 ± 0.072

Q: What about the protein stability index (ubr1∆) of the same sequence?
A: 2.17 ± 0.051

Q: Which protein stability index (doa10∆) does the source give for DEQQREDNNDAVNSIMA [ECM29] here?
A: 3.16 ± 0.1

Q: What about the protein stability index (pdr5∆) of the same sequence?
A: 3.56 ± 0.11

Q: What about the protein stability index (san1∆) of the same sequence?
A: 3.07 ± 0.1

Q: And the protein stability index (ubr1∆)?
A: 3.31 ± 0.074

Q: Which results are given for SNTEPIPRSNRHGSVVE [MED1]?
A: protein stability index (doa10∆): 2.23 ± 0.17; protein stability index (pdr5∆): 3.22 ± 0.23; protein stability index (san1∆): 2.72 ± 0.17

Q: What does the source list for EVGDVCINELDNWNAPL [RPO31]?
A: protein stability index (doa10∆): 3.21 ± 0.086; protein stability index (pdr5∆): 3.06 ± 0.074; protein stability index (san1∆): 3.21 ± 0.052; protein stability index (ubr1∆): 3.25 ± 0.053

Q: Which protein stability index (doa10∆) does the source give for EEEEDTTTTANINEVKK [NUT1] here?
A: 3.24 ± 0.098

Q: What about the protein stability index (pdr5∆) of the same sequence?
A: 3.39 ± 0.11

Q: What about the protein stability index (san1∆) of the same sequence?
A: 3.09 ± 0.084

Q: What about the protein stability index (ubr1∆) of the same sequence?
A: 3.33 ± 0.15

Q: Which results are given for GEYSVKLLKGATLYIPK [FAS2]?
A: protein stability index (pdr5∆): 2.87 ± 0.21; protein stability index (san1∆): 2.9 ± 0.12

Q: Which protein stability index (doa10∆) does the source give for PNIHQNLLPKKSAKATK [HTA1] here?
A: 2.53 ± 0.093

Q: And the protein stability index (pdr5∆)?
A: 2.66 ± 0.082

Q: What about the protein stability index (san1∆) of the same sequence?
A: 2.69 ± 0.1

Q: What about the protein stability index (ubr1∆) of the same sequence?
A: 2.49 ± 0.061

Q: For TLLYEQIIQRDKINKYS [SNF5], which protein stability index (doa10∆) is on record?
A: 3.1 ± 0.08

Q: And the protein stability index (pdr5∆)?
A: 3.35 ± 0.089

Q: What about the protein stability index (san1∆) of the same sequence?
A: 3.19 ± 0.059

Q: And the protein stability index (ubr1∆)?
A: 2.27 ± 0.072

Q: Which protein stability index (doa10∆) does the source give for SYANLPGTITHGMFSSA [FAS1] here?
A: 2.64 ± 0.06

Q: And the protein stability index (pdr5∆)?
A: 2.15 ± 0.051

Q: What about the protein stability index (san1∆) of the same sequence?
A: 2.16 ± 0.055

Q: What about the protein stability index (ubr1∆) of the same sequence?
A: 2.51 ± 0.035

Q: With IYLLFQSSGKLKEYLDL [YDL116W/NUP84] as the sequence, how does the protein stability index (doa10∆) read?
A: 2.51 ± 0.051

Q: And the protein stability index (pdr5∆)?
A: 2.44 ± 0.052

Q: And the protein stability index (san1∆)?
A: 2.52 ± 0.048

Q: What about the protein stability index (ubr1∆) of the same sequence?
A: 2.6 ± 0.038

Q: Which protein stability index (doa10∆) does the source give for ISDDDDSALRYSILGDR [POP4] here?
A: 3.12 ± 0.066

Q: And the protein stability index (pdr5∆)?
A: 2.97 ± 0.093

Q: And the protein stability index (san1∆)?
A: 2.61 ± 0.052

Q: And the protein stability index (ubr1∆)?
A: 2.72 ± 0.089

Q: What does the source list for RKKTPAGDWKYDRQLSS [FAS2]?
A: protein stability index (doa10∆): 1.25 ± 0.066; protein stability index (pdr5∆): 2.43 ± 0.092; protein stability index (san1∆): 1.59 ± 0.19; protein stability index (ubr1∆): 1.32 ± 0.079

Q: Which protein stability index (doa10∆) does the source give for LPQFRSSIQESLLSLVG [ECM29] here?
A: 1.87 ± 0.067

Q: What about the protein stability index (pdr5∆) of the same sequence?
A: 2.04 ± 0.048

Q: What about the protein stability index (san1∆) of the same sequence?
A: 1.7 ± 0.1

Q: What about the protein stability index (ubr1∆) of the same sequence?
A: 1.65 ± 0.054

Q: What does the source list for DEEESNDEKQKAQDVDV [RPN13]?
A: protein stability index (doa10∆): 3.33 ± 0.12; protein stability index (pdr5∆): 3.42 ± 0.077; protein stability index (san1∆): 3.34 ± 0.044; protein stability index (ubr1∆): 3.32 ± 0.049

Q: With SYFKNSVIVKFHSEPDR [LIN1] as the sequence, how does the protein stability index (doa10∆) read?
A: 2.23 ± 0.062

Q: What about the protein stability index (pdr5∆) of the same sequence?
A: 2.59 ± 0.075

Q: What about the protein stability index (san1∆) of the same sequence?
A: 2.44 ± 0.067

Q: And the protein stability index (ubr1∆)?
A: 2.77 ± 0.047

Q: With GLNWLISLHENKLSGIL [ISW2] as the sequence, how does the protein stability index (doa10∆) read?
A: 2.05 ± 0.056

Q: And the protein stability index (pdr5∆)?
A: 2.06 ± 0.062

Q: What about the protein stability index (san1∆) of the same sequence?
A: 2.11 ± 0.082

Q: And the protein stability index (ubr1∆)?
A: 2.31 ± 0.092
